Data on twelve molecules can be found in patent US20020164721A1, “Design of a polyepitopic construct for the induction of HLA-A2.1 restricted HIV 1 specific CTL responses using HHD mice” (priority 1999, published 2002).

Some results are limits rather than exact numbers.

Experiment [1] deals with T1, HLA-A2.1 molecules on T2 (TAP-, HLA-A2.1+) cells (human). Nature of the experiment: T2 cells, decay of surface peptide-HLA-A2.1 complexes, FACS.
Experiment [2] has as its target T1, HLA-A2.1 molecules on T2 (TAP-, …). Kind of experiment: T2 cells, HLA-A2.1 stabilisation, BB7.2 immunofluorescence FACS.
For experiment [3] the target is unchanged. Nature of the experiment: T2 cells, HLA-A2.1 stabilisation, indirect immunofluorescence FACS.

B1: Tyrosinase.368-D (peptide)
peptide: YMDGTMSQV
modifications: not checked
Consider B1, for which, in experiment [1], the DC50 (half-life of peptide-HLA-A2.1 complexes) was more than 6 h. Also, the relative affinity (RA) (ratio to reference peptide HIV 1 rt.476) in experiment [2] amounted to 2.27.

B2: MAGE-3.271 (peptide)
peptide: FLWGPRALV
modifications: not checked
B2 gave a DC50 (half-life of peptide-HLA-A2.1 complexes) in experiment [1] of 6 h.

B3: L10V (peptide)
peptide: LLDTGADDTV
modifications: not checked
As to B3, in experiment [1], the DC50 (half-life of peptide-HLA-A2.1 complexes) is less than 2 h. Further, the relative affinity (RA) (ratio to reference peptide I9V) in experiment [3] amounted to 10.

B4: K9L (peptide)
peptide: KLTPLCVSL
modifications: not checked
In turn, B4 displayed a DC50 (half-life of peptide-HLA-A2.1 complexes) in experiment [1] of more than 6 h. For the same molecule, the relative affinity (RA) (ratio to reference peptide I9V) in experiment [3] came out at 1.35.

B5: gp100.476 (peptide)
peptide: VLYRYGSFSV
modifications: not checked
For the molecule B5, the relative affinity (RA) (ratio to reference peptide HIV 1 rt.476) in experiment [2] was 10.

B6: Tyrosinase.368-N (peptide)
peptide: YMNGTMSQV
modifications: not checked
Consider B6, for which the DC50 (half-life of peptide-HLA-A2.1 complexes) in experiment [1] is more than 8 h. In addition, the relative affinity (RA) (ratio to reference peptide HIV 1 rt.476) in experiment [2] is 2.2.

B7: Her2/neu.654 (peptide)
peptide: IISAVVGIL
modifications: not checked
Take B7: the DC50 (half-life of peptide-HLA-A2.1 complexes) in experiment [1] is 4 h.

B8: Melan-A/MART-1.32 (peptide)
peptide: ILTVILGVL
modifications: not checked
As to B8, in experiment [2], the relative affinity (RA) (ratio to reference peptide HIV 1 rt.476) is 21.1.

B9: NA17-A.nt38 (peptide)
peptide: VLPDVFIRC
modifications: not checked
In the case of B9, the DC50 (half-life of peptide-HLA-A2.1 complexes) in experiment [1] was more than 8 h. Moreover, the relative affinity (RA) (ratio to reference peptide HIV 1 rt.476) in experiment [2] came out at 1.52.

B10: p53.65 (peptide)
peptide: RMPEAAPPV
modifications: not checked
For B10, the relative affinity (RA) (ratio to reference peptide HIV 1 rt.476) in experiment [2] was found to be 0.91.

B11: gp100.457 (peptide)
peptide: LLDGTATLRL
modifications: not checked
Consider B11, for which the relative affinity (RA) (ratio to reference peptide HIV 1 rt.476) in experiment [2] came to 1.65.

B12: Tyrosinase.1 (peptide)
peptide: MLLAVLYCL
modifications: not checked
B12: the relative affinity (RA) (ratio to reference peptide HIV 1 rt.476) in experiment [2] was more than 60.
